± gives the uncertainty stated by the source.
Test: protein stability index of a GFP-peptide fusion (yeast GPS) (PSI 1-4); higher = more stable; sorted into four equal gates, so the index is relative within each strain
Outline: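 Plasmids isolated from each sorting gate were PCR-amplified and Illumina-sequenced, and barcodes assigned the reads to strains. The gates, four of equal size, were set by GFP/Cherry fluorescence ratio on mid-log cultures in leucine-free medium. These cultures were yeast carrying a pooled library of tiled 17-residue yeast protein peptides fused downstream of GFP on a plasmid that also expresses Cherry. The protein stability index is the sum of every gate's read frequency times its gate number.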

| Sequence | protein stability index (doa10∆) | protein stability index (pdr5∆) | protein stability index (san1∆) | protein stability index (ubr1∆) |
| --- | --- | --- | --- | --- |
| ANLPANSSTSPAPSIPS [YLR335W/NUP2] | 2.94 ± 0.037 | 3.1 ± 0.037 | 2.95 ± 0.03 | 2.856 ± 0.027 |
| SVRIDGRKVLQKVQGES [SIR4] | 2.75 ± 0.089 | 3.11 ± 0.067 | 2.98 ± 0.066 | 2.88 ± 0.064 |
| SELAPIEEHPTVVDAID [IRR1] |  | 3.62 ± 0.19 | 3.25 ± 0.11 | 3.05 ± 0.071 |
| ESKQDGLSILFLTGQFA [YML103C/NUP188] | 2.79 ± 0.078 | 2.57 ± 0.062 | 2.88 ± 0.059 | 2.72 ± 0.063 |
| DQQSPWLLRLELDRAAM [RPO21] | 1.49 ± 0.22 | 1.83 ± 0.14 | 1.93 ± 0.13 | 2.66 ± 0.1 |
| IDFAPTSPFGGARPGRV [RPS9A] | 2.82 ± 0.072 | 2.53 ± 0.074 | 2.62 ± 0.074 | 2.74 ± 0.05 |
| LLFINSSKLVDVYTLPS [YML103C/NUP188] | 1.97 ± 0.043 | 2 ± 0.05 | 1.98 ± 0.055 | 2.01 ± 0.054 |
| GHLPEVSSKCNDIHLRF [ECM29] | 2.69 ± 0.11 | 2.92 ± 0.082 |  | 3.17 ± 0.17 |
| MCHIVRKFHELNDHIDD [GRR1] | 2.13 ± 0.053 | 2.31 ± 0.071 | 2.18 ± 0.079 | 1.72 ± 0.04 |
| QLLNGQKIVVVRAEELN [RPL16A] | 1.28 ± 0.049 | 1.31 ± 0.051 | 1.24 ± 0.13 | 1.21 ± 0.056 |
| YGKVYKAKRQINSGTNS [SSN3] | 2.23 ± 0.066 | 2.04 ± 0.058 | 2.49 ± 0.094 | 2.68 ± 0.053 |
| MGNTKVHCRISCQIAQP [RRP45] | 1.64 ± 0.059 | 2.04 ± 0.079 | 1.56 ± 0.1 | 1.91 ± 0.056 |
| EILVTELTAQGYDPALL [RPN2] | 2.8 ± 0.27 | 3.36 ± 0.15 |  | 3.28 ± 0.1 |
| NTAAALVSLLDENDSKK [YAR002W/NUP60] | 3.13 ± 0.097 | 2.95 ± 0.12 | 3.01 ± 0.087 | 3.01 ± 0.099 |
| LSEYLTKFQTTDRESYP [YCS4] |  | 3.28 ± 0.2 |  | 2.94 ± 0.14 |
| RNEKIAVHVTVRGPKAE [RPL11A] | 2.54 ± 0.067 | 2.3 ± 0.061 | 1.93 ± 0.12 | 2.62 ± 0.053 |
| DFLLSDWNKRFSHLAGG [BRR2] | 2.71 ± 0.053 | 2.82 ± 0.055 | 2.96 ± 0.065 | 2.85 ± 0.048 |
| RYKPKSHLWEIDIPLDE [RPC37] | 2.81 ± 0.23 |  | 3.03 ± 0.22 |  |
| TEAVTQLIGSNIELHSL [PUP1] | 3.29 ± 0.2 | 3.23 ± 0.12 | 3.44 ± 0.11 | 2.96 ± 0.13 |

| Sequence | protein stability index (doa10∆) | protein stability index (pdr5∆) | protein stability index (san1∆) | protein stability index (ubr1∆) |
| --- | --- | --- | --- | --- |
| SRMTVGKMIELISGKAG [RET1] | 3.14 ± 0.17 | 2.98 ± 0.15 | 3.05 ± 0.094 | 3.12 ± 0.13 |
| NVNETMSRSLANGIINV [SMC3] | 2.75 ± 0.074 | 2.76 ± 0.061 | 2.96 ± 0.081 | 2.73 ± 0.057 |
| QNTVPNVLNQINQIFSP [GAL11] | 2.63 ± 0.039 | 2.5 ± 0.033 | 2.4 ± 0.038 | 2.44 ± 0.032 |
| LTLQEDYIKDEQRHLKR [RPT3] | 3.43 ± 0.11 | 3.18 ± 0.081 | 3.14 ± 0.085 | 3.32 ± 0.07 |
| VTVEQLRSIYHQFHDIL [NSL1] | 2.41 ± 0.11 | 1.9 ± 0.073 | 1.31 ± 0.16 | 1.81 ± 0.066 |
| NNSGNDNNNTTNNDSNN [MED2] | 3.13 ± 0.035 | 3.27 ± 0.033 | 3.133 ± 0.023 | 3.092 ± 0.03 |
| WHIEETGEWFSSYEEFL [ITC1] | 2.31 ± 0.072 | 2.63 ± 0.077 | 2.59 ± 0.066 | 2.53 ± 0.063 |
| GGAYTVSTAAAATVRST [RPL43A] | 2.1 ± 0.053 | 2.25 ± 0.049 | 1.95 ± 0.069 | 2.14 ± 0.048 |
| DLMDEELRKHAQKRVSN [SKI6] | 3.38 ± 0.16 | 3.45 ± 0.11 | 2.8 ± 0.085 | 3.21 ± 0.077 |
| YNMYDAYGNWFNGLKPL [PRP8] | 2.93 ± 0.06 | 3.36 ± 0.093 | 2.9 ± 0.11 | 3.13 ± 0.048 |
| LPLFYDLLNAASIESAD [IRR1] | 2.08 ± 0.047 | 2.17 ± 0.056 | 2.27 ± 0.047 | 2.78 ± 0.048 |
| LRRVEERFTKSKTLSLI [FAS1] | 2.31 ± 0.076 | 2.09 ± 0.059 | 2.17 ± 0.087 | 1.79 ± 0.037 |
| KKISRLPKFLTVQYVRF [UBP6] | 1.65 ± 0.043 | 1.44 ± 0.041 | 1.28 ± 0.08 | 1.36 ± 0.035 |
| KIYKLENGERKLYDAKR [YMR129W/POM152] | 3.13 ± 0.06 | 3.17 ± 0.077 | 3.21 ± 0.065 | 3.29 ± 0.06 |
| YALQSVKLPRAFIDERA [RRP43] |  | 1.33 ± 0.17 | 1.3 ± 0.24 | 1.33 ± 0.075 |
| LAQKKAHLAEIQLNGGS [RPL3] |  |  |  | 2.85 ± 0.12 |
| RQYVGQLAPSSVDPQSS [DIS3] | 2.69 ± 0.05 | 3.06 ± 0.059 | 2.92 ± 0.063 | 2.62 ± 0.055 |
| VPHYNRLDSYKVIEQPI [RPL25] | 1.8 ± 0.095 | 2.21 ± 0.11 | 2.02 ± 0.11 | 2.21 ± 0.11 |
| WLAAATATGIKVFSLDP [ASC1] | 2.58 ± 0.049 | 2.69 ± 0.045 | 2.81 ± 0.036 | 2.43 ± 0.029 |

| Sequence | protein stability index (doa10∆) | protein stability index (pdr5∆) | protein stability index (san1∆) | protein stability index (ubr1∆) |
| --- | --- | --- | --- | --- |
| LGLEYIIRLLPINLENN [SRB8] | 1.67 ± 0.07 | 1.33 ± 0.058 | 1.24 ± 0.096 | 1.39 ± 0.061 |
| RKRVYNIKFLSKLEGTI [ESC2] |  | 3.51 ± 0.2 |  | 3.21 ± 0.16 |
| PNIHQNLLPKKSAKTAK [HTA2] | 2.88 ± 0.19 | 3.09 ± 0.29 |  | 3 ± 0.14 |
| GQVAIKTLVYLEKCEAE [YCS4] |  |  |  | 2.92 ± 0.24 |
| GTTATGTGLFGQQTAQP [YGR119C/NUP57] | 2.91 ± 0.16 | 2.76 ± 0.079 | 3.02 ± 0.18 | 3 ± 0.14 |
| FQHILRLLNTNVDGNIK [RPS18A] | 2.87 ± 0.05 | 2.95 ± 0.064 | 2.83 ± 0.045 | 2.59 ± 0.043 |
| ERAARVAAKIAALAGQQ [RPL5] | 2.71 ± 0.13 | 3.03 ± 0.17 | 2.57 ± 0.15 | 3.11 ± 0.079 |
| IIGKTTPISPDEEELGQ [RPB2] |  |  | 2.81 ± 0.23 | 2.98 ± 0.29 |
| DEINTAQDKWHLLPAFL [RET1] | 3.51 ± 0.16 | 3.31 ± 0.13 | 3.29 ± 0.07 |  |
| NQNICTSVTRRSPVFAL [GRR1] | 1.43 ± 0.039 | 1.6 ± 0.037 | 1.5 ± 0.058 | 1.74 ± 0.031 |
| LKRADYTAVDTAKLQMR [RPN14] |  | 3.33 ± 0.23 | 2.76 ± 0.1 |  |
| QNPLNKSQNTALPSTHK [SIR4] | 2.62 ± 0.048 | 2.88 ± 0.049 | 2.33 ± 0.058 | 2.76 ± 0.037 |
| ATLKEIKSIIEQRKQKL [SMC3] | 2.89 ± 0.087 | 3.16 ± 0.08 | 3.16 ± 0.046 | 3.04 ± 0.052 |
| GSKKGQEGKISSVYRLK [RPL26A] | 3.15 ± 0.11 | 2.94 ± 0.096 | 2.7 ± 0.086 | 3.33 ± 0.11 |
| EGHDWKAPTKLDDPEAV [DIS3] | 3.31 ± 0.057 | 3.28 ± 0.054 | 3.23 ± 0.041 | 3.25 ± 0.046 |
| LSFGTATSDNKTTNTTP [YJL041W/NSP1] | 2.21 ± 0.088 | 3.05 ± 0.083 | 2.24 ± 0.1 | 2.15 ± 0.094 |
| KFNNTQRESQIGAAELN [SNF12] | 3.01 ± 0.097 | 3.03 ± 0.14 | 2.87 ± 0.057 | 3.38 ± 0.09 |
| QSTQTDLEKTERIVVSY [SMC2] | 2.98 ± 0.052 | 2.94 ± 0.065 | 2.56 ± 0.058 | 2.69 ± 0.044 |

Source: the supplement of paper PMC9732359
